What is called Ki is a dissociation constant, usually derived from enzyme kinetics or from competition with a known ligand. A higher Ki goes with weaker binding.

What all share (test): competition
Test [1] concerns the target T1, human NK1 receptor (human, UniProt P25103).
T1 chain: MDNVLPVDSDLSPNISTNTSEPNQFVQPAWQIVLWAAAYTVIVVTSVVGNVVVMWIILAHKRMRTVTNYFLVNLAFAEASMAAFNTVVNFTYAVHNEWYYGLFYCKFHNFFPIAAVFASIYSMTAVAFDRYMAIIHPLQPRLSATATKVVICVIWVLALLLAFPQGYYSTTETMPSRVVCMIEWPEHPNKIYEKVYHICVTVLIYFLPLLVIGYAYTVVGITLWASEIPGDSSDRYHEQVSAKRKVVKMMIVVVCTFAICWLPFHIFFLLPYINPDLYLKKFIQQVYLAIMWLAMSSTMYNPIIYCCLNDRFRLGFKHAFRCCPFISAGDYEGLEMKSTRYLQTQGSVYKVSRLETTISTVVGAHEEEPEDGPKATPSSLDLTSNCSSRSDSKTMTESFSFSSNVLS

For test [2], the target named is mu opioid receptor (MOR) (UniProt P35372).
Chain of mu opioid receptor (MOR) (P35372 whole entry): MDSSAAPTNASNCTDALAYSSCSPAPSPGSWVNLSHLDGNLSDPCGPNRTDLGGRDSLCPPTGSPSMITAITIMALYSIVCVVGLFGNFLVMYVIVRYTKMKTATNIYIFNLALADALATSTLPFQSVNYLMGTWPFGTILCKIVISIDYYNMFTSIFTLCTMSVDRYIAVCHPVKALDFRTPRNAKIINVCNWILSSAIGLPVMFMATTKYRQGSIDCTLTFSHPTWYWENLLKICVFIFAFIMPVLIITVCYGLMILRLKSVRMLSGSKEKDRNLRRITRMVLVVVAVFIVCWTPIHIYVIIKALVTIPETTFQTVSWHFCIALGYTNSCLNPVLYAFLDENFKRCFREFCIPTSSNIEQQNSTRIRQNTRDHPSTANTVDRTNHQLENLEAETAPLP
Test [3] addresses T2, delta opioid receptor (DOR) (UniProt P41143).
T2 chain: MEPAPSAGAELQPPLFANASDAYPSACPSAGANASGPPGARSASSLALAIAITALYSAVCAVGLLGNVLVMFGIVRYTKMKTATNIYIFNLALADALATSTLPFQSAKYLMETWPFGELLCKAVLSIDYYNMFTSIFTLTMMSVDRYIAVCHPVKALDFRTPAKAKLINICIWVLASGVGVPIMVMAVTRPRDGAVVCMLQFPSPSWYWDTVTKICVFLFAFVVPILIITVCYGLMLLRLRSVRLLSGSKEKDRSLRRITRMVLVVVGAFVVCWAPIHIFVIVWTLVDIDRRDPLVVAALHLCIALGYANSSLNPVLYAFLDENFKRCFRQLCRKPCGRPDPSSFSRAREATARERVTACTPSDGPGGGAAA

The target in test [4] is T3, rat NK1 receptor (rat, UniProt P14600).
T3 chain: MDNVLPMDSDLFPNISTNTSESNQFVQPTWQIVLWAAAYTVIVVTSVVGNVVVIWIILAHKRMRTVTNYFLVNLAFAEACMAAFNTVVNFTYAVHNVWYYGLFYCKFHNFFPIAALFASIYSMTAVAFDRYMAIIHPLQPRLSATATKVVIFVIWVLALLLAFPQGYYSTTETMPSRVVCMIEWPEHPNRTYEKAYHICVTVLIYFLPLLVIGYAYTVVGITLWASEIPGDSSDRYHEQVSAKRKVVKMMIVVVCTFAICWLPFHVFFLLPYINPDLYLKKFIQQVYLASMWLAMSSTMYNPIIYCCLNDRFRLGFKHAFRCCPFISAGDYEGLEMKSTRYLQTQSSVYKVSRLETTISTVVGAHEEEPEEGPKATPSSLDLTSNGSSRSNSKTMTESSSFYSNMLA

Test [5] addresses T3, rat NK1 receptor.
Test [6] addresses T1, human NK1 receptor.
Test [7] addresses T1, human NK1 receptor.
For test [8], the target named is T3, rat NK1 receptor.
The target in test [9] is mu opioid receptor (MOR) (UniProt P35372). This is another data set of the same source.
In test [10] the target is T2, delta opioid receptor (DOR).
For test [11], the target named is mu opioid receptor (MOR) (UniProt P35372). This is another data set of the same source.

Read-outs that look alike come from different tables or passages of the source. Non-standard residues stand in square brackets, D forms with d. Primed or numbered codes have the meaning given here. No end group written: not given here. *: point of attachment. NH(3,5-(CF3)2-benzyl) = FC(F)(F)c1cc(CN*)cc(C(F)(F)F)c1; NMePhe(4-F) = CN[C@@H](Cc1ccc(F)cc1)C(=O)O; Phe(4-F) = N[C@@H](Cc1ccc(F)cc1)C(=O)O; Dmt = Cc1cc(O)cc(C)c1C[C@H](N)C(=O)O; NMeF = CN[C@@H](Cc1ccccc1)C(=O)O; 4‑Ampa = not defined here; 4‑Apac = not defined here; hSer = N[C@@H](CCO)C(=O)O; 4Abz = Nc1ccc(C(=O)O)cc1; 4Amb′ = not defined here; Dap = NC[C@H](N)C(=O)O; NHBn = c1ccc(CN*)cc1; Ahx = NCCCCCC(=O)O; GABA = NCCCC(=O)O; βAla = NCCC(=O)O

In the case of Y[dA]GF[hSer]PLW-NHBn [AKG039], the Ki with human NK1 receptor [1] came to 1.32 nM; with mu opioid receptor (MOR) [2], 116 nM; in test [3] it was 6 nM; with rat NK1 receptor [4], 148 nM.
Regarding XAGFPLW (Dmt1, D-NMeAla2; C-terminal NH-Bn(3',5'-(CF3)2)) [AKG181], the inhibition constant Ki with rat NK1 receptor [5] turned out to be 26.4 nM; with human NK1 receptor [6], 4.81 nM.
Take Y[dA]G[NMeF]MPLW-NHBn [AKG106]: the inhibitory constant (Ki) in the test with human NK1 receptor [7] is 1.47 nM; with rat NK1 receptor [8] it was 9.9 nM.
For the molecule Y[dA]G[NMePhe(4-F)]GPLW-{NH(3,5-(CF3)2-benzyl)} [AKG131], the Ki in the test with mu opioid receptor (MOR) [9] is 185 nM; in [10], 17 nM; with human NK1 receptor [7], 2.14 nM; in the test with rat NK1 receptor [8], 89.1 nM.
The matching figures for Y[dA]G[Phe(4-F)]GPLW-{NH(3,5-(CF3)2-benzyl)} [AKG130]: 9 nM, 5 nM, 1.54 nM and 72.5 nM.
As to [Dmt][dA]G[NMeF]SPLW-NHBn [AKG132], the inhibition constant (Ki) with human NK1 receptor [1] was determined as 5.61 nM; with mu opioid receptor (MOR) [2], 0.4 nM; in test [3] it was 2 nM; with rat NK1 receptor [4], 31.1 nM.
With Y[dA]GFPLW-{NH(3,5-(CF3)2-benzyl)} [TY012], the Ki with rat NK1 receptor [5] turned out to be 33 nM; with mu opioid receptor (MOR) [11], 9.5 nM; with human NK1 receptor [6] it was 0.6 nM.
As to Y[dA]G[NMeF][4‑Ampa]PLW-{NH(3,5-(CF3)2-benzyl)} (reading uncertain) [AKG178], the Ki in test [10] turned out to be 100 nM; with human NK1 receptor [7] it was 3.5 nM; in the test with rat NK1 receptor [8] it was 72.3 nM.
Y[dA]G[NMeF]GPLW-{NH(3,5-(CF3)2-benzyl)} [AKG113]: the inhibitory constant (Ki) was 3 nM in the test with mu opioid receptor (MOR) [9], 46 nM in test [10], 15 nM with human NK1 receptor [7] and 60.5 nM with rat NK1 receptor [8].
Molecule XAGFPLW (Dmt1, D-Ala2, Phe(4-I)4; C-terminal NH-Bn(3',5'-(CF3)2)) [AKG193] showed an inhibitory constant (Ki) in the test with mu opioid receptor (MOR) [11] of 6 nM.
In the case of Y[dA]G[NMeF]SPLW-NHBn [AKG126], the inhibitory constant (Ki) with human NK1 receptor [1] was determined as 0.86 nM; with mu opioid receptor (MOR) [2] it was 2 nM; in test [3], 63 nM; in the test with rat NK1 receptor [4], 31.5 nM.
For the molecule XAGFPLW (Dmt1, D-Ala2, NMeGly3, NMePhe4; C-terminal NH-Bn(3',5'-(CF3)2)) [AKG182], the Ki was 110 nM in the test with rat NK1 receptor [5] and 5 nM in the test with human NK1 receptor [6].
Y[dA]G[NMeF]KPLW (not fully specified (C-terminus)) [AKG174]: the Ki in the test with human NK1 receptor [1] was 3.18 nM; in the test with mu opioid receptor (MOR) [2], 8 nM; with rat NK1 receptor [4] it was 7.31 nM.
Regarding XAGFPLW (Dmt1, D-Ala2, Phe(4-Br)4; C-terminal NH-Bn(3',5'-(CF3)2)) [AKG192], the Ki is 5 nM with mu opioid receptor (MOR) [11] and 2.54 nM with human NK1 receptor [6].
For the molecule Y[dA]G[NMeF][GABA]PLW-{NH(3,5-(CF3)2-benzyl)} [AKG123], the inhibition constant (Ki) in the test with mu opioid receptor (MOR) [9] was determined as 9 nM; in test [10], 3 nM; with human NK1 receptor [7], 1.56 nM.
Taken in the same sequence, the figures for YAGFXPLW (D-Ala2, NMePhe4, Nle5; C-terminal NH-Bn(3',5'-(CF3)2)) [AKG112] were 13 nM, 22 nM and 14 nM.
Take XAGFPLW (Dmt1, D-Ala2, NMePhe(4-F)4; C-terminal NH-Bn(3',5'-(CF3)2)) [AKG128]: the inhibition constant Ki with rat NK1 receptor [5] turned out to be 33.8 nM; in the test with mu opioid receptor (MOR) [11] it was 1 nM; with human NK1 receptor [6] it was 2.62 nM.
XAGFPLW (Dmt1, D-NMeAla2, NMePhe4; C-terminal NH-Bn(3',5'-(CF3)2)) [AKG184]: the figures for the Ki in the test with rat NK1 receptor [5] and with human NK1 receptor [6] were 115 nM and 2.84 nM, respectively.
In the case of Y[dA]G[NMeF][Ahx]PLW-{NH(3,5-(CF3)2-benzyl)} [AKG124], the inhibition constant (Ki) was found to be 7 nM with mu opioid receptor (MOR) [9], 31 nM in test [10], 1.22 nM with human NK1 receptor [7] and 44.3 nM with rat NK1 receptor [8].
Y[dA]G[NMeF][4‑Apac]PLW-{NH(3,5-(CF3)2-benzyl)} (reading uncertain) [AKG177]: the Ki with mu opioid receptor (MOR) [9] was 1 nM; in test [10] it was 70 nM; with human NK1 receptor [7], 5.28 nM; with rat NK1 receptor [8], 74.3 nM.
The matching figures for Y[dA]G[NMeF][4Amb′]PLW-{NH(3,5-(CF3)2-benzyl)} (reading uncertain) [AKG125]: 5 nM, 117 nM, 2.27 nM and 29.9 nM.
Regarding Y[dA]G[NMeF][4Abz]PLW-{NH(3,5-(CF3)2-benzyl)} [AKG176], the Ki with mu opioid receptor (MOR) [9] was determined as 1 nM; in test [10], 82 nM; with human NK1 receptor [7] it was 4.12 nM; with rat NK1 receptor [8], 77.8 nM.
As for XAGFPLW (Dmt1, D-NMeAla2, NMeGly3, NMePhe4; C-terminal NH-Bn(3',5'-(CF3)2)) [AKG185], the inhibitory constant (Ki) with rat NK1 receptor [5] was 74.8 nM; with human NK1 receptor [6], 3.47 nM.
In the case of XAGFPLW (Dmt1, D-Ala2, NMeGly3; C-terminal NH-Bn(3',5'-(CF3)2)) [AKG180], the Ki is 17.1 nM with rat NK1 receptor [5] and 2.86 nM with human NK1 receptor [6].
In the case of Y[dA]G[NMeF][βAla]PLW-{NH(3,5-(CF3)2-benzyl)} [AKG119], the Ki stood at 8 nM with mu opioid receptor (MOR) [9], 46 nM in test [10], 0.93 nM with human NK1 receptor [7] and 29.4 nM with rat NK1 receptor [8].
Turning to Y[dA]GF[dS]PLW-NHBn [AKG101], the Ki was found to be 2.77 nM with human NK1 receptor [1], 196 nM in the test with mu opioid receptor (MOR) [2], 34 nM in test [3] and 108 nM in the test with rat NK1 receptor [4].
Consider XAGFMPLW (not fully specified; Dmt1, D-Ala2, NMePhe4 as described; C-terminal benzylamide) [AKG107], for which the inhibition constant (Ki) with human NK1 receptor [7] was determined as 1.97 nM; with rat NK1 receptor [8], 13.6 nM.
Consider Y[dA]GFSPLW (not fully specified (C-terminus)) [AKG038], for which the inhibition constant (Ki) in the test with human NK1 receptor [1] was 1.94 nM; with mu opioid receptor (MOR) [2] it was 127 nM; in test [3], 7 nM; in the test with rat NK1 receptor [4], 206 nM.
On to Y[dA]G[NMeF][Dap]PLW-NHBn [AKG171], for which the inhibitory constant (Ki) with human NK1 receptor [1] amounted to 2.98 nM; in the test with mu opioid receptor (MOR) [2], 3 nM; in test [3] it was 33 nM; in the test with rat NK1 receptor [4], 8.59 nM.
For XAGFPLW (Dmt1, D-NMeAla2, NMeGly3; C-terminal NH-Bn(3',5'-(CF3)2)) [AKG183], the Ki is 17.6 nM with rat NK1 receptor [5] and 2.49 nM with human NK1 receptor [6].

The values above are taken from US11141452 (dated 2021).
